Test [1] deals with T1, LRP-1 on isolated brain capillaries (Mus musculus, UniProt Q91ZX7).
T1 construct: from tissue; host or cells: isolated brain capillaries of wild-type and RAP null mice
As to the kind of experiment: Brain capillary uptake (in vitro clearance of 125I-Aβ by isolated brain capillaries). Particulars: for lower affinity (Ki) for LRP-mediated clearance on brain capillaries than Aβ1-40: 125I-Aβ1-40 as test-ligand, unlabeled peptide 40 nM. Format: cell-based.

Test [2] addresses T2, LRP-1 at the blood-brain barrier (Mus musculus, UniProt Q91ZX7).
T2 construct: from tissue; host or cells: living mouse brain (C57BL/6, RAP null and littermate controls), microinjection into brain ISF
The test is described as follows: Brain clearance studies: efflux of 125I-Aβ from brain ISF across the blood-brain barrier. It is filed as in vivo. Particulars: RAP 1 μM, αLRP-1 60 μg/ml, NI IgG 60 μg/ml, 30 min.
Description: All studies were performed according to National Institutes of Health guidelines using an approved institutional protocol. […] Briefly a stainless steel guide cannula was implanted stereotaxically into the right caudate-putamen of anesthetized mice (0.5 mg/kg ketamine and 5 mg/kg xylazine I.P.). Coordinates for tip of the cannula were 0.9 mm anterior and 1.9 mm lateral to the bregma and 2.9 mm below the surface of the brain. Animals were allowed to recover after surgery prior to radiotracer studies. […] When the effects of the different unlabeled molecular reagents were tested, they were injected simultaneously with radiolabled ligands. […] Brain and blood were sampled 30 min after tracers injection and prepared for radioactivity analysis by TCA, HPLC and SDS-PAGE/immunoprecipitation analysis to determine the molecular forms of test-tracers. […] For SDS-PAGE analysis, TCA precipitated samples were resuspended in 1% SDS, vortexed and incubated at 55° C. for 5 min, then neutralized, boiled for 3 min, homogenized, and analyzed by electrophoresis in 10% Tris-Tricine gels followed by fluorography.
The percentage of Aβ cleared through the BBB was calculated as [(1−Nb(Aβ)/Ni(Aβ))−(1−Nb(inulin)/Ni(inulin))]×100, using a standard time of 30 min (3). […]

In test [3] the target is T3, LRP-1 cluster IV (Homo sapiens, UniProt Q07954).
T3 construct: cluster IV (i.e., His3313 to Leu3759 as numbered in Herz et al., 1988); made in house; host or cells: stably transfected baby hamster kidney (BHK) cells
As to the kind of experiment: Surface plasmon resonance binding of Aβ peptides to immobilized LRP-1 cluster IV. Particulars: RAP 500 nM. On the procedure: (§1) RAP was used at 500 nM. Ligand solution was replaced with buffer to initiate dissociation. […] Apparent affinity constants Kd(app) were inferred from the ratio koff(app)/kon(app). Data are based on three to five measurements using six to nine different concentrations for each measurement. Data are presented as the mean±SEM. Analysis was performed using BIACORE X biosensor system (Uppsala, Sweden) and BIA evaluation 3.0 software (Biocore, Sweden).
A general note: SPR reads the build-up and loss of mass on a sensor chip optically.

In test [4] the target is T4, LRP-1 cluster II (Homo sapiens, UniProt Q07954).
T4 construct: cluster II (i.e., Arg786 to Leu1165 as numbered in Herz et al., 1988); made in house; host or cells: stably transfected baby hamster kidney (BHK) cells
T4 sequence (Q07954 786-1165): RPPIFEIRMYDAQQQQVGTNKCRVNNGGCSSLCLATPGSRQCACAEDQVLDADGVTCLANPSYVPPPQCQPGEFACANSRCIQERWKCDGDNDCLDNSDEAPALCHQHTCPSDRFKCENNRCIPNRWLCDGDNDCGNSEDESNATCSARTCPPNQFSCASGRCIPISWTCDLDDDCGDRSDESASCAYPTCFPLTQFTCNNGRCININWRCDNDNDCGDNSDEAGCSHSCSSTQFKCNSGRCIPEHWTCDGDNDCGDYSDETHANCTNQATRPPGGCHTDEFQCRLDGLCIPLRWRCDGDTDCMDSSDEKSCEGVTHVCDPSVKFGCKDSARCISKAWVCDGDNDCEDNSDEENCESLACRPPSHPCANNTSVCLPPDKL
The test is described as follows: Surface plasmon resonance binding of Aβ peptides to immobilized LRP-1 cluster II. To be noted: RAP 500 nM. The method, then: as §1

This note sets out measurements from US7608586B2, “Soluble low-density lipoprotein receptor related protein binds directly to Alzheimer's amyloid-beta peptide” (The University of Rochester, priority 2003, dated 2009).

“Also recorded” adds a separate entry of the source.

T1 sequence (Q91ZX7 20-4545): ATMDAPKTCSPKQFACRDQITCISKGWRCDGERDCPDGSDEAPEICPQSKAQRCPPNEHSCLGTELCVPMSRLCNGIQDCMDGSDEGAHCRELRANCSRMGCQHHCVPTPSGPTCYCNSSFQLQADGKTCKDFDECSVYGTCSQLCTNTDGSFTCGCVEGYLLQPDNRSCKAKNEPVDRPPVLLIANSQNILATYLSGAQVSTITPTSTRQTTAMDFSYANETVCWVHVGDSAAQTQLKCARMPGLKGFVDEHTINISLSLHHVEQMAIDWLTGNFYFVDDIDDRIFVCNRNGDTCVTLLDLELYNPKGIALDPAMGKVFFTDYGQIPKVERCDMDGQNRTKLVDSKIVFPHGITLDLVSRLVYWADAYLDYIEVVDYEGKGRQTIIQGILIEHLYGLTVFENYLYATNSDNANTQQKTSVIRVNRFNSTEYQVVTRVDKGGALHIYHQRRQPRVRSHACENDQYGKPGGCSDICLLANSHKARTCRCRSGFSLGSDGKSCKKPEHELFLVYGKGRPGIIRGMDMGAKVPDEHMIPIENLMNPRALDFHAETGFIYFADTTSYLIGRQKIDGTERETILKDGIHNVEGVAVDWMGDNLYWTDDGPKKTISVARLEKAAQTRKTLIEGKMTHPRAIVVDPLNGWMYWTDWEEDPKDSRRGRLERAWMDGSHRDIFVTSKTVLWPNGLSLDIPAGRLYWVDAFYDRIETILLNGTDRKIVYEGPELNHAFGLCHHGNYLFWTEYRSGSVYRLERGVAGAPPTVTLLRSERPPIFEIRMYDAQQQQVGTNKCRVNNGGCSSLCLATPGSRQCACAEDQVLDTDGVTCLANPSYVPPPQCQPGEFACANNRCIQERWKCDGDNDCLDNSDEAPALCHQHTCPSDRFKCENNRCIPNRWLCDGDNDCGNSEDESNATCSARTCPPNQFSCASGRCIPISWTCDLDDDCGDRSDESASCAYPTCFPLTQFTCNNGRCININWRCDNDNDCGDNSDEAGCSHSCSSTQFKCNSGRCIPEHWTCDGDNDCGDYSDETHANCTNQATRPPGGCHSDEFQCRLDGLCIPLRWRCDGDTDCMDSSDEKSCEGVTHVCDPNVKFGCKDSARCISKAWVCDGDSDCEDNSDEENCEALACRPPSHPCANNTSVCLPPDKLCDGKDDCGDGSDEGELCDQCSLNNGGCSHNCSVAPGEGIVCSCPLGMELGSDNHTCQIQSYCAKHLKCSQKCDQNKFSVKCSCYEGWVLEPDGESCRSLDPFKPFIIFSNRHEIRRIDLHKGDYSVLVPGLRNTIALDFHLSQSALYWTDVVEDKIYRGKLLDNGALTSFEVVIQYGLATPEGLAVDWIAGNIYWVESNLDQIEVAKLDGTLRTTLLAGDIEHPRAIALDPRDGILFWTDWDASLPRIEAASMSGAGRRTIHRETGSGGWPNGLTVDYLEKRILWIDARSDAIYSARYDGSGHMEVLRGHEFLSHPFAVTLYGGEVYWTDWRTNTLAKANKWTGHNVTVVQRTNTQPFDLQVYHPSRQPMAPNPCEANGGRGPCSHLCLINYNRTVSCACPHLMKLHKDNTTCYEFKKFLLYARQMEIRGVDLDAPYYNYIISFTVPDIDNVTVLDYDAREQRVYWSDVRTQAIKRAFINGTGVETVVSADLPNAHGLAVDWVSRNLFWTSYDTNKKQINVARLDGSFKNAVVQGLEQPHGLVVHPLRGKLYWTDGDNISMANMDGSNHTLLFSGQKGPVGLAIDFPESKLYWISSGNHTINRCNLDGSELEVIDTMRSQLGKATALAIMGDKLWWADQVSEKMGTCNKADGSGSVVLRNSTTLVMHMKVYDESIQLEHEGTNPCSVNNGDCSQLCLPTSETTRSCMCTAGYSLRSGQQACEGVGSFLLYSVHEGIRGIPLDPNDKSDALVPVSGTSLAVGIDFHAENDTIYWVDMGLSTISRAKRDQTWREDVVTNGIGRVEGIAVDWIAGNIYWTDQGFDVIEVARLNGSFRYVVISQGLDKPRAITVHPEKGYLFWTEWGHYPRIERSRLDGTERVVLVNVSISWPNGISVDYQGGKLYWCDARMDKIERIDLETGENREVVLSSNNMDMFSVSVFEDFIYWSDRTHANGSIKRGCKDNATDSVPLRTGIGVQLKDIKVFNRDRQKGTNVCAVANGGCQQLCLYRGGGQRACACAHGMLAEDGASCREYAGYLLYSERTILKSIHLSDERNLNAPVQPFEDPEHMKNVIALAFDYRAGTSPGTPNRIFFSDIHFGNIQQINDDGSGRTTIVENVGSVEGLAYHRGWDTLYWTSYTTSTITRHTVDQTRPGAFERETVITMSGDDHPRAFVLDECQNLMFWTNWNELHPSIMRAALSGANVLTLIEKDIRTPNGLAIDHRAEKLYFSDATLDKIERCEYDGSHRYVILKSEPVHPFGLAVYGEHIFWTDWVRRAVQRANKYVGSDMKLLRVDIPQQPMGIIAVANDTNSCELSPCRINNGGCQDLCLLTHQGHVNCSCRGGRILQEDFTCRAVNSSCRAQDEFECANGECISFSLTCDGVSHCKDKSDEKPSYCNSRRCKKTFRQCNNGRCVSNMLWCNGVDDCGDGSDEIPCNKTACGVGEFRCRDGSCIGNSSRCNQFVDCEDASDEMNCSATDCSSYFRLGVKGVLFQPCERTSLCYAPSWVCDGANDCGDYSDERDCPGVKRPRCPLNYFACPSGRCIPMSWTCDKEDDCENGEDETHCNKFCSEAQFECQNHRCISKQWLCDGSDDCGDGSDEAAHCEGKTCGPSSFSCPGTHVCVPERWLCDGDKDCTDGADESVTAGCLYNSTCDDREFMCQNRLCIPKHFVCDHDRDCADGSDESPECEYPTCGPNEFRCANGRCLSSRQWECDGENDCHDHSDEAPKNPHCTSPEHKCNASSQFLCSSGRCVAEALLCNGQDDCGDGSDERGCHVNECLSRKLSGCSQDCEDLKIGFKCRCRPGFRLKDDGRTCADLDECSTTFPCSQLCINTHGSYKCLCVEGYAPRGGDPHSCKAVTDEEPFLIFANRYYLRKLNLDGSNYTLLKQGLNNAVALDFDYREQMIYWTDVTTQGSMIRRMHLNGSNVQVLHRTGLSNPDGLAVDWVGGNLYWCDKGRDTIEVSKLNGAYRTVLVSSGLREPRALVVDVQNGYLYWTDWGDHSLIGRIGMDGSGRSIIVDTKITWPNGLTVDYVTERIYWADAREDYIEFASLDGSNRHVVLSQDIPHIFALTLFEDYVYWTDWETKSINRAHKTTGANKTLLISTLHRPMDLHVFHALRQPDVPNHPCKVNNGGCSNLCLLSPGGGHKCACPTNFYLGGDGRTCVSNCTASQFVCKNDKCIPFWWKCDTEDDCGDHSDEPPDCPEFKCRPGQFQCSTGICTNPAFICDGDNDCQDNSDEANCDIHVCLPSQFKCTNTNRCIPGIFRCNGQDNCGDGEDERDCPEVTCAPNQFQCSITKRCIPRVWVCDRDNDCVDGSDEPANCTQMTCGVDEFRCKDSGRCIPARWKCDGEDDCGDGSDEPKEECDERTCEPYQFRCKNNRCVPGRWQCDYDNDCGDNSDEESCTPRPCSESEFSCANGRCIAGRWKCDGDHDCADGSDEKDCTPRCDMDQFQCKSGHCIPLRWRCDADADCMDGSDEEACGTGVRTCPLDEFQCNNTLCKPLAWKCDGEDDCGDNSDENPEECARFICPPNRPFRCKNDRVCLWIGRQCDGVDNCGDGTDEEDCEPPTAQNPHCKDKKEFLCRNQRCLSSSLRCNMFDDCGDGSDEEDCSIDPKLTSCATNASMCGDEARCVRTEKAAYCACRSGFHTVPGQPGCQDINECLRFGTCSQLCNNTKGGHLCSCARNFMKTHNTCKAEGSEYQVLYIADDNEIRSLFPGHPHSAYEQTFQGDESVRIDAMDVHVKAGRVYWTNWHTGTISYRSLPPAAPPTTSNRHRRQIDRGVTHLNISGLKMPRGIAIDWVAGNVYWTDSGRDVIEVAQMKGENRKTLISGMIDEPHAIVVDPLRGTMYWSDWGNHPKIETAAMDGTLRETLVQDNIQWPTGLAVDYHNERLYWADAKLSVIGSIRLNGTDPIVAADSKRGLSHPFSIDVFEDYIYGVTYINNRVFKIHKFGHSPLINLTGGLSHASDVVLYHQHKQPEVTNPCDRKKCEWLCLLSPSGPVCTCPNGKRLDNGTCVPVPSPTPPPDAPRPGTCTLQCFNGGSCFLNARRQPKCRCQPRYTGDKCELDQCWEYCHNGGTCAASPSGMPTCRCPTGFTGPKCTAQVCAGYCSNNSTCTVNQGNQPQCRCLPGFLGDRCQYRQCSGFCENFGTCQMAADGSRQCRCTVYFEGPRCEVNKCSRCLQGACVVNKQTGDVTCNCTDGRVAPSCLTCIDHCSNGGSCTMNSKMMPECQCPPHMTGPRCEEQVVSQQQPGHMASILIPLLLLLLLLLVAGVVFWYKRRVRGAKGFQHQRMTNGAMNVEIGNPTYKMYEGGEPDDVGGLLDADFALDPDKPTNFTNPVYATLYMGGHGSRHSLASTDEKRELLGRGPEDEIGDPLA
T3 sequence (Q07954 3313-3759): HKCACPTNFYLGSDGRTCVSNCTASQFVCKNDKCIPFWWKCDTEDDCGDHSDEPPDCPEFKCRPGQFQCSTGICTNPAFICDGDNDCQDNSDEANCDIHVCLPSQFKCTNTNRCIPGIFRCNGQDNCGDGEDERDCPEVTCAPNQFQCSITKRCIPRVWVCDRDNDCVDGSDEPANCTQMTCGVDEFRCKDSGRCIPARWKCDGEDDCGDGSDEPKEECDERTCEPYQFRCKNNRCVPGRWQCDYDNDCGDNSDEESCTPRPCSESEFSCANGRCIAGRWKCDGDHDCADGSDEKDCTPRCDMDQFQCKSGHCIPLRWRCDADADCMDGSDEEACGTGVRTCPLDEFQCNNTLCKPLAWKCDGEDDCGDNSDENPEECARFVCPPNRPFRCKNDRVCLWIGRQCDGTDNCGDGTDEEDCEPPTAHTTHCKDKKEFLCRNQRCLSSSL
T2 sequence (Q91ZX7 20-4545): as the sequence (Q91ZX7 20-4545) above

In the case of “Dutch Aβ1-42: Dutch (E22Q) mutant Aβ1-42 peptide”, the “lower affinity (Ki) for LRP-mediated clearance on brain capillaries than Aβ1-40” value in test [1] is on record as 18 fold.
In the case of “RAP: human recombinant receptor-associated protein, an LRP-1 antagonist”, the “effect on Aβ1-40 brain capillary uptake” value in test [1] (Aβ1-40 at 120 nM, RAP 1 μM, αLRP-1 60 μg/ml, NI IgG 60 μg/ml) is reported as “completely inhibited; also recorded: abolished”. The “effect on 125I-Aβ1-40 uptake before (total) and after mild acid wash” value in test [1] (RAP 500 nM, 37° C.) is reported as “blocked”. For the same substance, the “effect on Aβ elimination from brain” value in test [2] was “almost completely abolished”. For the same substance, the “Binding of Aβ peptides to LRP-1 cluster IV in the presence of RAP” value in test [3] is “abolished”. The “Binding of Aβ peptides to LRP-1 cluster II in the presence of RAP” value in test [4] is listed as “abolished”.
Consider “Dutch Aβ1-40: Dutch (E22Q) mutant Aβ1-40 peptide”, for which, in test [1], the “lower affinity (Ki) for LRP-mediated clearance on brain capillaries than Aβ1-40” value is 6 fold.
